From publication PMC3680380, “Functional Characterization of the Cardiac Ryanodine Receptor Pore-Forming Region” (PLoS ONE, 2013)

Target: the molecule itself
Assay: SEC; analytical gel filtration, HiLoad 16/60 Superdex 200, 50 mM Tris, 150 mM KCl, pH 8.0, 0.1% LDAO; calibrated with soluble protein standards (B-amylase, carbonic anhydrase, cytochrome c); elution at 72 ml against 71 ml expected for a tetramer

B1: human cardiac ryanodine receptor (RyR2) pore-forming region (domain or fragment, UniProt Q92736 4758-4967, looked up)
chain: SSVTHNGKQLVLTVGLLAVVVYLYTVVAFNFFRKFYNKSEDGDTPDMKCDDMLTCYMFHMYVGVRAGGGIGDEIEDPAGDEYEIYRIIFDITFFFFVIVILLAIIQGLIIDAFGELRDQQEQVKEDMETKCFICGIGNDYFDTVPHGFETHTLQEHNLANYLFFLMYLINKDETEHTGQESYVWKMYQERCWEFFPAGDCFRKQYEDQLN
notes: Cardiac ryanodine receptor RyR2, human, pore-forming region, residues 4758-4967 (printed as 209 residues), up to the natural C-terminus; 27.3 kDa with the tag; also called hRyR2-PFR; RyR2-PFR; source: E. coli Rosetta (DE3) pLysS, pET19b; membranes solubilised in 1% LDAO, purified (Ni-NTA, Superdex 200 gel filtration in 0.1% LDAO); not shown: deca-His, N-terminal, kept
stoichiometry N: 4
